To fix the notation:
T1: EsCas13d, nuclease-dead (Eubacterium siraeum, UniProt B0MS50, R295A;H300A;R849A;H854A)
T1 sequence: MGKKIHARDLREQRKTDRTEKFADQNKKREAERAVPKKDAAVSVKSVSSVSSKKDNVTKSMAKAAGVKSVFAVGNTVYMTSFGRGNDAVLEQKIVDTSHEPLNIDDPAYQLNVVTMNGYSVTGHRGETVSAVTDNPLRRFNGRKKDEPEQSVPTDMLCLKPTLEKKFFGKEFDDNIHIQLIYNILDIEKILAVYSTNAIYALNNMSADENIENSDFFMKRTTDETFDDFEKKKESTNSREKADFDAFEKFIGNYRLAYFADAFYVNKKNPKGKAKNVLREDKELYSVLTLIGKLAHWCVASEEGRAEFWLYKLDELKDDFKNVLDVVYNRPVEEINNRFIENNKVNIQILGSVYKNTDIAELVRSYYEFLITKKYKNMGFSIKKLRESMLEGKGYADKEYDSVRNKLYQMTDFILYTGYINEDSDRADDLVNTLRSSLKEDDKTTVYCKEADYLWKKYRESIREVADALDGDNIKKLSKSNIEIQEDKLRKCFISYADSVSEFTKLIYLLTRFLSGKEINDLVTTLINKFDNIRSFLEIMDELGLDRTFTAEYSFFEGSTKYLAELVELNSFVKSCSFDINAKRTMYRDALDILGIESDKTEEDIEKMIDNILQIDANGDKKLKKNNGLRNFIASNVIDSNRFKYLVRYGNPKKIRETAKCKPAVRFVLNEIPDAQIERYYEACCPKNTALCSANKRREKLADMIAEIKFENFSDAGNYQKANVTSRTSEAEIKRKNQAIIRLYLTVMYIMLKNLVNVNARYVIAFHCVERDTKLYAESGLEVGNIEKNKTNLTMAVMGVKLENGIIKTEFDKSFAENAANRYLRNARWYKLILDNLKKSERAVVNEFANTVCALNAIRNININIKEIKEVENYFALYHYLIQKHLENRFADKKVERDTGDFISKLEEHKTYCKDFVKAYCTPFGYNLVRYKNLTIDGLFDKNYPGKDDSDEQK

B1: target 1 MT 5'PFS UCC 3'PFS AAA (mixed)
RNA 1: CACCCGUGCAAAAAUGCAGGGGUCUAAAACUGAGCGGAUAACCUCUCUAUGG
RNA 2: GGGAAUGGAUCCACAUCUACGAAUUCUCCCCAUAGAGAGGUUAUCCGCUCAAAAAGAUCGGAAGAGCACACGU
B2: target 1 MT 5'PFS UAA 3'PFS AUC (mixed)
RNA 1: B1 RNA 1
RNA 2: B1 RNA 2 with C28A, C29A, A53U, A54C
B3: target 1 MT 5'PFS UAA 3'PFS UCC (mixed)
RNA 1: B1 RNA 1
RNA 2: B1 RNA 2 with C28A, C29A, A52U, A53C, A54C
B4: target 1 MT 5'PFS AAA 3'PFS UAG (mixed)
RNA 1: B1 RNA 1
RNA 2: B1 RNA 2 with U27A, C28A, C29A, A52U, A54G
B5: target 1 MT 5'PFS UGG 3'PFS CCG (mixed)
RNA 1: B1 RNA 1
RNA 2: B1 RNA 2 with C28G, C29G, A52C, A53C, A54G
B6: target 1 MT 5'PFS AGU 3'PFS ACG (mixed)
RNA 1: B1 RNA 1
RNA 2: B1 RNA 2 with U27A, C28G, C29U, A53C, A54G
B7: target 1 MT 5'PFS CCA 3'PFS UGC (mixed)
RNA 1: B1 RNA 1
RNA 2: B1 RNA 2 with U27C, C29A, A52U, A53G, A54C
B8: target 1 MT 5'PFS GAC 3'PFS CAU (mixed)
RNA 1: B1 RNA 1
RNA 2: B1 RNA 2 with U27G, C28A, A52C, A54U
B9: target 1 MT 5'PFS GGA 3'PFS CUU (mixed)
RNA 1: B1 RNA 1
RNA 2: B1 RNA 2 with U27G, C28G, C29A, A52C, A53U, A54U
B10: target 1 MT 5'PFS UAA 3'PFS UCA (mixed)
RNA 1: B1 RNA 1
RNA 2: B1 RNA 2 with C28A, C29A, A52U, A53C
B11: target 1 MT 5'PFS CCA 3'PFS UGA (mixed)
RNA 1: B1 RNA 1
RNA 2: B1 RNA 2 with U27C, C29A, A52U, A53G
B12: target 1 C2G,U10G (mixed)
RNA 1: B1 RNA 1
RNA 2: B1 RNA 2 with U27G, C28U, C29A, U42G, C50G, A52C, A53C, A54G
B13: target 1 MT 5'PFS UAA 3'PFS AUA (mixed)
RNA 1: B1 RNA 1
RNA 2: B1 RNA 2 with C28A, C29A, A53U
B14: target 1 MT 5'PFS GGG 3'PFS UAU (mixed)
RNA 1: B1 RNA 1
RNA 2: B1 RNA 2 with U27G, C28G, C29G, A52U, A54U
B15: target 1 MT 5'PFS GAC 3'PFS CAA (mixed)
RNA 1: B1 RNA 1
RNA 2: B1 RNA 2 with U27G, C28A, A52C
B16: target 1 MT 5'PFS GAC 3'PFS CAC (mixed)
RNA 1: B1 RNA 1
RNA 2: B1 RNA 2 with U27G, C28A, A52C, A54C
B17: target 1 MT 5'PFS GGA 3'PFS CUG (mixed)
RNA 1: B1 RNA 1
RNA 2: B1 RNA 2 with U27G, C28G, C29A, A52C, A53U, A54G
B18: target 1 MT 5'PFS CUC 3'PFS UGC (mixed)
RNA 1: B1 RNA 1
RNA 2: B1 RNA 2 with U27C, C28U, A52U, A53G, A54C
B19: target 1 MT 5'PFS AGU 3'PFS ACC (mixed)
RNA 1: B1 RNA 1
RNA 2: B1 RNA 2 with U27A, C28G, C29U, A53C, A54C
B20: target 1 MT 5'PFS UGU 3'PFS CCG (mixed)
RNA 1: B1 RNA 1
RNA 2: B1 RNA 2 with C28G, C29U, A52C, A53C, A54G
B21: target 1 MT 5'PFS UCC 3'PFS UGA (mixed)
RNA 1: B1 RNA 1
RNA 2: B1 RNA 2 with A52U, A53G
B22: target 1 A18C,C22A (mixed)
RNA 1: B1 RNA 1
RNA 2: B1 RNA 2 with U27G, C28U, C29A, C30A, A34C, A52C, A53C, A54G
B23: target 1 MT 5'PFS UAA 3'PFS UCU (mixed)
RNA 1: B1 RNA 1
RNA 2: B1 RNA 2 with C28A, C29A, A52U, A53C, A54U
B24: target 1 MT 5'PFS CCU 3'PFS UCA (mixed)
RNA 1: B1 RNA 1
RNA 2: B1 RNA 2 with U27C, C29U, A52U, A53C
B25: target 1 MT 5'PFS ACC 3'PFS UUG (mixed)
RNA 1: B1 RNA 1
RNA 2: B1 RNA 2 with U27A, A52U, A53U, A54G
B26: target 1 MT 5'PFS AGU 3'PFS ACA (mixed)
RNA 1: B1 RNA 1
RNA 2: B1 RNA 2 with U27A, C28G, C29U, A53C
B27: target 1 MT 5'PFS GGG 3'PFS UAG (mixed)
RNA 1: B1 RNA 1
RNA 2: B1 RNA 2 with U27G, C28G, C29G, A52U, A54G
B28: target 1 MT 5'PFS GGG 3'PFS UAC (mixed)
RNA 1: B1 RNA 1
RNA 2: B1 RNA 2 with U27G, C28G, C29G, A52U, A54C
B29: target 1 MT 5'PFS UAA 3'PFS AUG (mixed)
RNA 1: B1 RNA 1
RNA 2: B1 RNA 2 with C28A, C29A, A53U, A54G
B30: target 1 U3G,G5C (mixed)
RNA 1: B1 RNA 1
RNA 2: B1 RNA 2 with U27G, C28U, C29A, G47C, U49G, A52C, A53C, A54G
B31: target 1 MT 5'PFS UCC 3'PFS UGC (mixed)
RNA 1: B1 RNA 1
RNA 2: B1 RNA 2 with A52U, A53G, A54C
B32: target 1 MT 5'PFS UAG 3'PFS UAA (mixed)
RNA 1: B1 RNA 1
RNA 2: B1 RNA 2 with C28A, C29G, A52U
B33: target 1 MT 5'PFS UAG 3'PFS AGG (mixed)
RNA 1: B1 RNA 1
RNA 2: B1 RNA 2 with C28A, C29G, A53G, A54G
B34: target 1 MT 5'PFS UCC 3'PFS UGU (mixed)
RNA 1: B1 RNA 1
RNA 2: B1 RNA 2 with A52U, A53G, A54U
B35: target 1 MT 5'PFS UCA 3'PFS CGA (mixed)
RNA 1: B1 RNA 1
RNA 2: B1 RNA 2 with C29A, A52C, A53G
B36: target 1 MT 5'PFS GGG 3'PFS UAA (mixed)
RNA 1: B1 RNA 1
RNA 2: B1 RNA 2 with U27G, C28G, C29G, A52U
B37: target 1 insA 3' of 19,insA 3' of 7 (mixed)
RNA 1: B1 RNA 1
RNA 2: GGGAAUGGAUCCACAUCUACGAAUUCGUACCAUAAGAGAGGUUAUCACGCUCACCGAGAUCGGAAGAGCACACGU
B38: target 1 MT 5'PFS AGU 3'PFS ACU (mixed)
RNA 1: B1 RNA 1
RNA 2: B1 RNA 2 with U27A, C28G, C29U, A53C, A54U

Positions count from the first letter of the chain named. Numbers in names are those of the source.

The data set has as its target T1, EsCas13d, nuclease-dead. Description: crRNA (strand 1, pre-loaded); Mg2+; 40 mM Tris-HCl pH 7.5, 150 mM NaCl, 6 mM MgCl2, 1 mM DTT, 0.1% Tween-20, 0.2 mg/ml BSA; 25 C; 10 min per concentration, then washed. The settings on record: tags: His6-TwinStrep-SUMO cleaved; N-terminal SNAP kept (SNAP-Surface 488); label: 3' end held by stalled T7 RNA polymerase.
On to B1, for which the Kd was roughly 23.5 nM.

Consider B2, for which binding was put at a Kd of 33 ± 10 nM.

For B3, binding was put at a Kd of 82.5 ± 27.5 nM. In the case of B4, the Kd stood at 12.9 ± 2.25 nM. This Kd lies about 6.4-fold lower than the previous one. With B5, the Kd came to 47 ± 9.5 nM. For B6 the value was 36 ± 10 nM; for B7, 3.55 ± 0.8 nM. Under B8 stands 21.5 ± 8 nM.

B9: binding was put at a Kd of 13 ± 4.5 nM. For the molecule B10, the dissociation constant (Kd) was 32 ± 9.5 nM. Under B11 stands 13 ± 4.5 nM; under B12, 42 ± 7 nM; under B13, 47 ± 13.5 nM. Under B14 stands 16.7 ± 3.25 nM.

For B15, the Kd stood at 25.5 ± 8.5 nM. For B16, the affinity, expressed as Kd, was 61 ± 21.5 nM. In turn, B17 gave a dissociation constant Kd of 11.3 ± 1.9 nM. Regarding B18, the dissociation constant Kd is roughly 60 nM. Molecule B19 registered a Kd of roughly 80 nM.

Molecule B20 showed a Kd of 34.5 ± 13.5 nM. Under B21 stands roughly 29 nM. B22 displayed an equilibrium dissociation constant (Kd) of 67 ± 13 nM.

On to B23, for which the dissociation constant (Kd) worked out at 44.5 ± 15 nM. Under B24 stands 26.5 ± 10.5 nM. Molecule B25 came in with an equilibrium dissociation constant (Kd) of 7.35 ± 3.35 nM. Against the preceding molecule, the Kd is about 3.6-fold lower. Molecule B26 had a Kd of 65 ± 29 nM. With B27, the Kd stood at 16.1 ± 2.1 nM.

Molecule B28 registered a Kd of 16.8 ± 2.75 nM. Under B29 stands 57.5 ± 16 nM. Under B30 stands 16.7 ± 1.1 nM. Under B31 stands roughly 12.5 nM; under B32, 21.4 ± 4.8 nM; under B33, 65.5 ± 15 nM. The molecule B34 registered a Kd of roughly 70 nM. The molecule B35 yielded a Kd of 12.2 ± 3.45 nM. For B36 the value was 17.4 ± 2.8 nM; for B37, 15.2 ± 1.4 nM; for B38, 38 ± 11 nM.

Source of the values: publication PMC10786891, “Massively parallel profiling of RNA-targeting CRISPR-Cas13d”.
